This test concerns the target α-amylase. Briefly: cell-based or functional assay.

The substance “thioredoxin/90-mer ELP/tendamistat fusion protein (from UniProt P01092 31-104)” yielded a α-amylase inhibition activity (colorimetric α-amylase inhibition assay) of 2 fold.

For the origin of these results see patent US20050255554A1.
